Data: article PMC2172640 (The Journal of Cell Biology, 2003)

T1: HA95 (human (endogenous in Bjab and HeLa), UniProt Q9ULX6 1-646)
T1 sequence (looked up): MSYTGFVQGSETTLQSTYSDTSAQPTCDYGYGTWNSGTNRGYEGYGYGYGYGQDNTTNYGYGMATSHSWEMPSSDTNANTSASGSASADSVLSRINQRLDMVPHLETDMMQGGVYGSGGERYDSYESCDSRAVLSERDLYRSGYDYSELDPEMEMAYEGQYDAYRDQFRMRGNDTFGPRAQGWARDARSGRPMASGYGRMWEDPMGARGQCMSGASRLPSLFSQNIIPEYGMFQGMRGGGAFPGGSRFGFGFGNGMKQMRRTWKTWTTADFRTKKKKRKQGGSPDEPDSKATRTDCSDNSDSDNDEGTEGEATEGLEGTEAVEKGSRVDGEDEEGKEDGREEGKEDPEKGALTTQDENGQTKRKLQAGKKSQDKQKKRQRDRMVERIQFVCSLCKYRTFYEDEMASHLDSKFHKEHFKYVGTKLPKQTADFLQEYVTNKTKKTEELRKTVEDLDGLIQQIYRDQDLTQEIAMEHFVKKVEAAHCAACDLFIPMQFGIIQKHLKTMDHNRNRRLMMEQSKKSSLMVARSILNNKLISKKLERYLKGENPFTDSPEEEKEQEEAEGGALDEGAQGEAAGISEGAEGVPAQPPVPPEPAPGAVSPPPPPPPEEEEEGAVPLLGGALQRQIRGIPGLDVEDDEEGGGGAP


Target: T1, HA95
Assay: far-Western, overlay or dot blot

Row | binding result | Binder
1 | binds | GST–LAP2β(1–397) (domain or fragment, UniProt Q62733 1-397, looked up) MPEFLEDPSVLTKDKLKSELVANNVTLPAGEQRKDVYVQLYLQHLTARNRPPLAAGANSKGPPDFSSDEEREPTPVLGSGASVGRGRGAVGRKATKKTDKPRPEDKDDLDVTELSNEELLEQLVRYGVNPGPIVGTTRKLYEKKLLKLREQGAESRSSTPLPTVSSSAENTRQNGSNDSDRYSDNDEDSKIELKLEKREPLKGRAKTPVTLKQRRIEHNQSYSEAGVTETEWTSGSSKGGPLQALTRESTRGSRRTPRRRVEPSQHFRVDGAVISESTPIAETIKASSNDSLVANRLTGNFKHASSILPITEFSDITRRTPKKPLTRAEVGEKTEERRVERDILKEMFPYEASTPTGISASCRRPIKGAAGRPLELSDFRMEESFSSKYVPKYVPLA
2 | binds | GST–LAP2β(299–397) (domain or fragment, UniProt Q62733 299-397, looked up) GNFKHASSILPITEFSDITRRTPKKPLTRAEVGEKTEERRVERDILKEMFPYEASTPTGISASCRRPIKGAAGRPLELSDFRMEESFSSKYVPKYVPLA
3 | binds | GST–LAP2β(137–298) (domain or fragment, UniProt Q62733 137-298, looked up) TRKLYEKKLLKLREQGAESRSSTPLPTVSSSAENTRQNGSNDSDRYSDNDEDSKIELKLEKREPLKGRAKTPVTLKQRRIEHNQSYSEAGVTETEWTSGSSKGGPLQALTRESTRGSRRTPRRRVEPSQHFRVDGAVISESTPIAETIKASSNDSLVANRLT
4 | binds | GST–LAP2β(243–373) (domain or fragment, UniProt Q62733 243-373, looked up) QALTRESTRGSRRTPRRRVEPSQHFRVDGAVISESTPIAETIKASSNDSLVANRLTGNFKHASSILPITEFSDITRRTPKKPLTRAEVGEKTEERRVERDILKEMFPYEASTPTGISASCRRPIKGAAGRP

Further lines, the binder ahead of its results:

Row | Binder | binding result
5 | GST–LAP2β(1–298) (domain or fragment, UniProt Q62733 1-298, looked up) MPEFLEDPSVLTKDKLKSELVANNVTLPAGEQRKDVYVQLYLQHLTARNRPPLAAGANSKGPPDFSSDEEREPTPVLGSGASVGRGRGAVGRKATKKTDKPRPEDKDDLDVTELSNEELLEQLVRYGVNPGPIVGTTRKLYEKKLLKLREQGAESRSSTPLPTVSSSAENTRQNGSNDSDRYSDNDEDSKIELKLEKREPLKGRAKTPVTLKQRRIEHNQSYSEAGVTETEWTSGSSKGGPLQALTRESTRGSRRTPRRRVEPSQHFRVDGAVISESTPIAETIKASSNDSLVANRLT | binds
6 | GST–LAP2β(299–373) (domain or fragment, UniProt Q62733 299-373, looked up) GNFKHASSILPITEFSDITRRTPKKPLTRAEVGEKTEERRVERDILKEMFPYEASTPTGISASCRRPIKGAAGRP | binds
7 | GST–LAP2β(1–452) (domain or fragment, UniProt Q62733 1-452, looked up) MPEFLEDPSVLTKDKLKSELVANNVTLPAGEQRKDVYVQLYLQHLTARNRPPLAAGANSKGPPDFSSDEEREPTPVLGSGASVGRGRGAVGRKATKKTDKPRPEDKDDLDVTELSNEELLEQLVRYGVNPGPIVGTTRKLYEKKLLKLREQGAESRSSTPLPTVSSSAENTRQNGSNDSDRYSDNDEDSKIELKLEKREPLKGRAKTPVTLKQRRIEHNQSYSEAGVTETEWTSGSSKGGPLQALTRESTRGSRRTPRRRVEPSQHFRVDGAVISESTPIAETIKASSNDSLVANRLTGNFKHASSILPITEFSDITRRTPKKPLTRAEVGEKTEERRVERDILKEMFPYEASTPTGISASCRRPIKGAAGRPLELSDFRMEESFSSKYVPKYVPLADVKSEKTKKGRSVPMWIKMLLFALVAGFLFLVYQAMETNQGNPFTNFLQDTKISN | binds
8 | GST–LAP2β(243–397) (domain or fragment, UniProt Q62733 243-397, looked up) QALTRESTRGSRRTPRRRVEPSQHFRVDGAVISESTPIAETIKASSNDSLVANRLTGNFKHASSILPITEFSDITRRTPKKPLTRAEVGEKTEERRVERDILKEMFPYEASTPTGISASCRRPIKGAAGRPLELSDFRMEESFSSKYVPKYVPLA | binds
9 | GST–LAP2β(137–373) (domain or fragment, UniProt Q62733 137-373, looked up) TRKLYEKKLLKLREQGAESRSSTPLPTVSSSAENTRQNGSNDSDRYSDNDEDSKIELKLEKREPLKGRAKTPVTLKQRRIEHNQSYSEAGVTETEWTSGSSKGGPLQALTRESTRGSRRTPRRRVEPSQHFRVDGAVISESTPIAETIKASSNDSLVANRLTGNFKHASSILPITEFSDITRRTPKKPLTRAEVGEKTEERRVERDILKEMFPYEASTPTGISASCRRPIKGAAGRP | binds
